# From the Human Domainome abundance scans (Beltran et al. 2025)
# ± gives the uncertainty stated by the source.
# B1: Gamma-crystallin C, residues 4 to 79; numbered along this chain, P07315 (parent)
# chain: ITFYEDRAFQGRSYETTTDCPNLQPYFSRCNSIRVESGCWMLYERPNYQGQQYLLRRGEYPDYQQWMGLSDSIRSC
# Variants of: B1
# Assay: abundance fitness (aPCA) (normalised: wild type 0, dead -1); higher = more abundant; growth selection in yeast, the domain comes from the species named
# Details: Homo sapiens
row,Variant,abundance fitness
1,ITFYEDRAFQGRSYEFTTDCPNLQPYFSRCNSIRVESGCWMLYERPNYQGQQYLLRRGEYPDYQQWMGLSDSIRSC [T16F],0.084 ± 0.1
2,ITFYEDRAFQGRSYENTTDCPNLQPYFSRCNSIRVESGCWMLYERPNYQGQQYLLRRGEYPDYQQWMGLSDSIRSC [T16N],-0.116 ± 0.13
3,ITFYEDRAFQGRSYECTTDCPNLQPYFSRCNSIRVESGCWMLYERPNYQGQQYLLRRGEYPDYQQWMGLSDSIRSC [T16C],0.003 ± 0.13
4,ITFYEDRAFQGRSYETTTDCPNLQPYFSRCNSIRVESGCWMLYERPNYQGQQYLLRRGEYPDYQQWMGLSMSIRSC [D71M],-0.133 ± 0.075
5,ITFYEDRAFQGRSYETTTDCPNLQPYFSRCNSIRVESGCWMLYERPNYQGQQYLLRRGEYPDYQQWMGLSWSIRSC [D71W],-0.02 ± 0.14
6,ITFYEDRAFQGRSYETTTDCPNLQPYFSRCNSIRVESGCWMLYERPNYQGQQYLLRRGEYPDYQQWMGLSCSIRSC [D71C],-0.017 ± 0.11
7,ITFYEDRAFQGRSYETTTDCPNLQLYFSRCNSIRVESGCWMLYERPNYQGQQYLLRRGEYPDYQQWMGLSDSIRSC [P25L],0.021 ± 0.098
8,ITFYEDRAFQGRSYETTTDCANLQPYFSRCNSIRVESGCWMLYERPNYQGQQYLLRRGEYPDYQQWMGLSDSIRSC [P21A],-0.028 ± 0.11
9,ITFYEDRAFQGRSYETTTDCCNLQPYFSRCNSIRVESGCWMLYERPNYQGQQYLLRRGEYPDYQQWMGLSDSIRSC [P21C],-0.119 ± 0.1
10,ITFYEDRAFQGRSYETTTDCPNLQPYFSTCNSIRVESGCWMLYERPNYQGQQYLLRRGEYPDYQQWMGLSDSIRSC [R29T],0.101 ± 0.14
11,ITFYEDRAFQGRSYETTTDCPNLQPSFSRCNSIRVESGCWMLYERPNYQGQQYLLRRGEYPDYQQWMGLSDSIRSC [Y26S],0.045 ± 0.097
12,ITFYEDRAFQGRSKETTTDCPNLQPYFSRCNSIRVESGCWMLYERPNYQGQQYLLRRGEYPDYQQWMGLSDSIRSC [Y14K],-0.163 ± 0.1
13,ITFYEDRAFQGRSYETTTDCPNLQPYFSRINSIRVESGCWMLYERPNYQGQQYLLRRGEYPDYQQWMGLSDSIRSC [C30I],-0.1 ± 0.14
14,ITFYEDRAFQGRSYETTTDCPNLQPYFSRCNSIRVESGCWMLYERPNYQGQQYLLRRGSYPDYQQWMGLSDSIRSC [E59S],0.049 ± 0.1
15,ITFYEDRAFQGRSYETTTDCPNLQPYFSRCNSIRVESGCWMLYERPNYQGQQYLLRRGIYPDYQQWMGLSDSIRSC [E59I],-0.789 ± 0.35
16,ITFYVDRAFQGRSYETTTDCPNLQPYFSRCNSIRVESGCWMLYERPNYQGQQYLLRRGEYPDYQQWMGLSDSIRSC [E5V],-0.107 ± 0.078
17,ITFYTDRAFQGRSYETTTDCPNLQPYFSRCNSIRVESGCWMLYERPNYQGQQYLLRRGEYPDYQQWMGLSDSIRSC [E5T],-0.156 ± 0.078
18,ITFYEDRAFQGFSYETTTDCPNLQPYFSRCNSIRVESGCWMLYERPNYQGQQYLLRRGEYPDYQQWMGLSDSIRSC [R12F],0.026 ± 0.11

row,Variant,abundance fitness
1,ITFYEDRAFQGESYETTTDCPNLQPYFSRCNSIRVESGCWMLYERPNYQGQQYLLRRGEYPDYQQWMGLSDSIRSC [R12E],0.066 ± 0.072
2,ITFYEDRAFQGPSYETTTDCPNLQPYFSRCNSIRVESGCWMLYERPNYQGQQYLLRRGEYPDYQQWMGLSDSIRSC [R12P],-0.053 ± 0.076
3,ITFYEDRAFQGRSYETTTDCPNLQPYFSRCNSIRVESGCWMLYERPNYQGQQYLLRRGEYPDYQQWMGTSDSIRSC [L69T],0.047 ± 0.085
4,ITFYEDRAFQGRSYETTTDCPNLQPYFSRCNSIRVESGCWMLYERPNYQGQQYLLRRGEYPDYQQWMGVSDSIRSC [L69V],0.02 ± 0.058
5,ITFYEDRAFQGRSYETTTDCPNLQPYFSRCNSIRVESGCWMLYERPNYQGQQYLLRRGEYPDYQQWMGCSDSIRSC [L69C],0.07 ± 0.12
6,ITFYEDRAFQGRSYETTTDCPNLQPYFSRCNSIRVESGCWMLYERPNYQGQQYLLRRGEYPDYQQWMGLLDSIRSC [S70L],-0.047 ± 0.049
7,ITFYEDRAFQGRSYETTTDCPNLQPYFSRCNSIRVESGCWMLYERPNYQGQQYLLRRGEYPDYMQWMGLSDSIRSC [Q64M],-0.101 ± 0.081
8,ITFYEDRAFQGRSYETTTDCPNLQPYFSRCNSIRVESGCWMLYERPNYQGQQYLLRRGEYPDYHQWMGLSDSIRSC [Q64H],0.155 ± 0.19
9,ITFYEDRAFQGRSYETTTDCPNLQPYFSRCNSIRVESGCWMLYERPNYQGQQYLLRRGEYPDYQQVMGLSDSIRSC [W66V],0.018 ± 0.077
10,ITFYEDRAFQGRSYETTTDCPNLQPYFSRCNSIRVESGCWMLYERPNYQGQQYLLRRGEYPDYQQMMGLSDSIRSC [W66M],-0.093 ± 0.14
11,ICFYEDRAFQGRSYETTTDCPNLQPYFSRCNSIRVESGCWMLYERPNYQGQQYLLRRGEYPDYQQWMGLSDSIRSC [T2C],-0.054 ± 0.35
12,IWFYEDRAFQGRSYETTTDCPNLQPYFSRCNSIRVESGCWMLYERPNYQGQQYLLRRGEYPDYQQWMGLSDSIRSC [T2W],-0.201 ± 0.12
13,IPFYEDRAFQGRSYETTTDCPNLQPYFSRCNSIRVESGCWMLYERPNYQGQQYLLRRGEYPDYQQWMGLSDSIRSC [T2P],-0.838 ± 0.17
14,INFYEDRAFQGRSYETTTDCPNLQPYFSRCNSIRVESGCWMLYERPNYQGQQYLLRRGEYPDYQQWMGLSDSIRSC [T2N],-0.002 ± 0.33
15,ITFYEDRAFQDRSYETTTDCPNLQPYFSRCNSIRVESGCWMLYERPNYQGQQYLLRRGEYPDYQQWMGLSDSIRSC [G11D],-0.5 ± 0.18
16,ITFYEDRAFQGRQYETTTDCPNLQPYFSRCNSIRVESGCWMLYERPNYQGQQYLLRRGEYPDYQQWMGLSDSIRSC [S13Q],0.061 ± 0.1
17,ITFYEDRAFQGRSYETTTDCPNLQPYFSRCNSIRVESGCWMLYERPNYQGQQYLLREGEYPDYQQWMGLSDSIRSC [R57E],0.064 ± 0.1
18,ITFYEDRAFQGRSYETTTDCPNLQPYFSRCNSIRPESGCWMLYERPNYQGQQYLLRRGEYPDYQQWMGLSDSIRSC [V35P],-1.03 ± 0.34
